For assay [1], the target named is cardiac sodium channel NaV1.5 α subunit of human origin (adult isoform) (human) (UniProt Q14524).
Assay [2] shares this target. The source holds these as a separate data set.
The target is the same in assay [3]. The source holds these as a separate data set.

Sequence of UniProt Q14524 (Q14524 whole entry, canonical isoform): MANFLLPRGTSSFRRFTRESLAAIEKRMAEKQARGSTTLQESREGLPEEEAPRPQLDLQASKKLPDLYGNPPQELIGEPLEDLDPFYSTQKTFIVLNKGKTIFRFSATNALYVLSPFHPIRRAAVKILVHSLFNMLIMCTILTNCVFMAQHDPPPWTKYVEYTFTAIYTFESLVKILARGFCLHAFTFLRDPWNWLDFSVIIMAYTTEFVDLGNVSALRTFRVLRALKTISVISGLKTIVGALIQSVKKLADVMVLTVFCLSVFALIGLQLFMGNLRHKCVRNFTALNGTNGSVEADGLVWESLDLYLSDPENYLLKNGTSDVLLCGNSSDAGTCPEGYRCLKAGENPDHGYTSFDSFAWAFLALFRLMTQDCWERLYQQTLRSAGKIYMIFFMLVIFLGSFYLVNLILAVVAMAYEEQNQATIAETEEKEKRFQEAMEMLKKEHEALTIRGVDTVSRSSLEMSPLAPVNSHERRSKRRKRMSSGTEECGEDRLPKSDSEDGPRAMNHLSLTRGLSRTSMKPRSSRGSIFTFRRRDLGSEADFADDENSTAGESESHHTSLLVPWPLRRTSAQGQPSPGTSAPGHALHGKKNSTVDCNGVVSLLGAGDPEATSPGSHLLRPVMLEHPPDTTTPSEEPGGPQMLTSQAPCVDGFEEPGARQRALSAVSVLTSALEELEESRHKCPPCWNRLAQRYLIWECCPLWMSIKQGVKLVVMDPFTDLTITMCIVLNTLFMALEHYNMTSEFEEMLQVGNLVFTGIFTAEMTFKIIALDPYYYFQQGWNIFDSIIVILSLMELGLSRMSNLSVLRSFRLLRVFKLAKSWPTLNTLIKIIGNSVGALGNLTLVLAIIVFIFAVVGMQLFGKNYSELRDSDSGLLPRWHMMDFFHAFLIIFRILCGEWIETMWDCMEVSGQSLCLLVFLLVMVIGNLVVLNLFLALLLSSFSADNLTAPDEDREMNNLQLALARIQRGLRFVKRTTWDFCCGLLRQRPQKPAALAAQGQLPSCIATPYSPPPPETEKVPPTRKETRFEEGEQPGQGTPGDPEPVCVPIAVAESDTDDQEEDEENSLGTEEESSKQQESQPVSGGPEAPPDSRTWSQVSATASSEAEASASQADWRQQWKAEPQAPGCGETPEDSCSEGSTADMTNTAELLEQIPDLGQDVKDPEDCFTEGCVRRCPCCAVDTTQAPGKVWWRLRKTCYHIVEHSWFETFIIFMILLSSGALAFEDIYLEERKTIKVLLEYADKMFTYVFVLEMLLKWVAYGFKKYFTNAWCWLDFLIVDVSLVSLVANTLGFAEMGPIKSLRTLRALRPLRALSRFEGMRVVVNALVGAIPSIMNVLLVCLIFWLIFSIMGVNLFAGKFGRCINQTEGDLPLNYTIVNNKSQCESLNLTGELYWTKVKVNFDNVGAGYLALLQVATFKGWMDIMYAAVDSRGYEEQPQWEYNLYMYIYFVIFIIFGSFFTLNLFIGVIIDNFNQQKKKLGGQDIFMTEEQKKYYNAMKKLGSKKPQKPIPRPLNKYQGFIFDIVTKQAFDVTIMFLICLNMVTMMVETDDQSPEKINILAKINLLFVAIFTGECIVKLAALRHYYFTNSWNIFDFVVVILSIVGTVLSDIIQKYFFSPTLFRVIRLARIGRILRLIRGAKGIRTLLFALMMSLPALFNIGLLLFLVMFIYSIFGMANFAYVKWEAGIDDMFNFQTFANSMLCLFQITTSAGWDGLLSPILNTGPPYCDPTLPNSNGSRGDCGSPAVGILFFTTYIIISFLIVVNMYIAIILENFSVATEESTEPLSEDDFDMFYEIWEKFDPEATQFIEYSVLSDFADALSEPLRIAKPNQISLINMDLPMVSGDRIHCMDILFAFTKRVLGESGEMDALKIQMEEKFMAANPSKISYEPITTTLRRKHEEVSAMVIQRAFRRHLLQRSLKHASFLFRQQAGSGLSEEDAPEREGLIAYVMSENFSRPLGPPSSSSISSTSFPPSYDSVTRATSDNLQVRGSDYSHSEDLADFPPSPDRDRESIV

As for “AahII toxin from Androctonus australis Hector (from UniProt P01484 20-85) (natural protein)”, in assay [1], the whole-cell patch clamp: tau of NaV1.5 after AahII 75 nM for 7 min followed by 75 nM Nb10 alone until 14 min turned out to be 4.6 and the whole-cell patch clamp: tau of NaV1.5 with AahII 75 nM perfused for 7 min, before Nb10 alone stood at 9.6 ms. Also, in assay [2], the whole-cell patch clamp: tau of NaV1.5 after AahII 75 nM for 7 min followed by 75 nM AahII + 75 nM Nb10 (1:1) up to 14 min was determined as 4.7 ms. In assay [3], this substance registered a whole-cell patch clamp on HEK293 cells expressing NaV1.5: factor by which inactivation is slowed against control, [AahII] 75, 150 and 300 nM of 35 fold; a whole-cell patch clamp: inactivation time constant (tau) of NaV1.5 after washout of AahII (75 nM) with control solution of 5.2 ms.

The values above are taken from article PMC8918821.
